One data set deals with H3K36me3. Description: H3K36 demethylase activity of KDM4A variants in transfected cells (immunofluorescence). The format is cell-based. To be noted: U2OS cells transfected with GFP-KDM4A.
The subject of another data set is HEK 293T cells. In words: Monitored cell proliferation assay (xCELLigence growth curves, doubling time). The data set is classed as cell-based, human. On the procedure:
Seventy two hours post transfection 1×10^4 HEK 293T cells were seeded per well of a 96 well plate, and then treated after 24h. Cell proliferation was monitored with an xCELLigence system (Roche) (Vistejnova et al., 2009).

B1: KDM4A SNP-A482: KDM4A germline variant E482A (protein)
chain: MASESETLNPSARIMTFYPTMEEFRNFSRYIAYIESQGAHRAGLAKVVPPKEWKPRASYDDIDDLVIPAPIQQLVTGQSGLFTQYNIQKKAMTVREFRKIANSDKYCTPRYSEFEELERKYWKNLTFNPPIYGADVNGTLYEKHVDEWNIGRLRTILDLVEKESGITIEGVNTPYLYFGMWKTSFAWHTEDMDLYSINYLHFGEPKSWYSVPPEHGKRLERLAKGFFPGSAQSCEAFLRHKMTLISPLMLKKYGIPFDKVTQEAGEFMITFPYGYHAGFNHGFNCAESTNFATRRWIEYGKQAVLCSCRKDMVKISMDVFVRKFQPERYKLWKAGKDNTVIDHTLPTPEAAEFLKESELPPRAGNEEECPEEDMEGVEDGEEGDLKTSLAKHRIGTKRHRVCLEIPQEVSQSELFPKEDLSSEQYEMTECPAALAPVRPTHSSVRQVEDGLTFPDYSDSTEVKFEELKNVKLEEEDEEEEQAAAALDLSVNPASVGGRLVFSGSKKKSSSSLGSGSSRDSISSDSETSEPLSCRAQGQTGVLTVHSYAKGDGRVTVGEPCTRKKGSAARSFSERELAEVADEYMFSLEENKKSKGRRQPLSKLPRHHPLVLQECVSDDETSEQLTPEEEAEETEAWAKPLSQLWQNRPPNFEAEKEFNETMAQQAPHCAVCMIFQTYHQVEFGGFNQNCGNASDLAPQKQRTKPLIPEMCFTSTGCSTDINLSTPYLEEDGTSILVSCKKCSVRVHASCYGVPPAKASEDWMCSRCSANALEEDCCLCSLRGGALQRANDDRWVHVSCAVAILEARFVNIAERSPVDVSKIPLPRFKLKCIFCKKRRKRTAGCCVQCSHGRCPTAFHVSCAQAAGVMMQPDDWPFVVFITCFRHKIPNLERAKGALQSITAGQKVISKHKNGRFYQCEVVRLTTETFYEVNFDDGSFSDNLYPEDIVSQDCLQFGPPAEGEVVQVRWTDGQVYGAKFVASHPIQMYQVEFEDGSQLVVKRDDVYTLDEELPKRVKSRLSVASDMRFNEIFTEKEVKQEKKRQRVINSRYREDYIEPALYRAIME
modifications: left off: large carriers; small tags and cut ends
notes: KDM4A germline variant E482A
On to B1, for which the “H3K36me3 and H3K9me3 catalytic activities” value in the data set with H3K36me3 is on record as “did not appear to be altered”. Moreover, the “rescue of increased sensitivity to AZD8055 due to KDM4A depletion (doubling time 5h-35h)” value in the data set with HEK 293T cells (shRNA KDM4A plus non targetable GFP-KDM4A constructs) is given as “does not”. Also, the “rescue of increased sensitivity to Rapamycin of KDM4A depleted cells (doubling time 5h-35h)” value in the data set on HEK 293T cells (shRNA KDM4A plus shRNA-resistant GFP-KDM4A constructs) is given as “does not”.
